Laboratory results reported in US20260274955A1 (JANUX THERAPEUTICS, published 2026).
Where two headings read alike, the source gives them in different places. No end group written: not given here.

T1: Peptide-84 (cysteine pairing not given here; also: biotinylated, site not given here)
T1 construct: optimization library of Peptide-39
T1 peptide: YCEGHLPEYRNKCL

T2: Peptide-73 (cysteine pairing not given here; also: biotinylated, site not given here)
T2 construct: optimization library of Peptide-39
T2 peptide: YCEGHAPEYIAKCL

T3: Peptide-78 (cysteine pairing not given here; also: biotinylated, site not given here)
T3 construct: optimization library of Peptide-39
T3 peptide: YCEGHLPEYREKCL

T4: Peptide-79 (cysteine pairing not given here; also: biotinylated, site not given here)
T4 construct: optimization library of Peptide-39
T4 peptide: YCEGHLPEYLAKCL

T5: Peptide-86 (cysteine pairing not given here; also: biotinylated, site not given here)
T5 construct: optimization library of Peptide-39
T5 peptide: YCEGHLPEYIQKCL

T6: Peptide-72 (cysteine pairing not given here; also: biotinylated, site not given here)
T6 construct: optimization library of Peptide-39
T6 peptide: YCEGHLPEYIEKCL

B1: Peptide-39 (peptide)
peptide: YCAGHAWQYINKCL
modifications: cysteine pairing not given here; also: biotinylated, site not given here
notes: synthetic peptide
B2: Peptide-63 (peptide)
peptide: YCAGHAWAYINKCL
notes: alanine scanning peptide of Peptide-39 (Q8A)
B3: Peptide-65 (peptide)
peptide: YCAGHAWQYANKCL
notes: alanine scanning peptide of Peptide-39 (I10A)
B4: Peptide-68 (peptide)
peptide: YCAGHAWQYINKCA
notes: alanine scanning peptide of Peptide-39 (L14A)
B5: Peptide-62 (peptide)
peptide: YCAGHAAQYINKCL
notes: alanine scanning peptide of Peptide-39 (W7A)
B6: Peptide-66 (peptide)
peptide: YCAGHAWQYIAKCL
notes: alanine scanning peptide of Peptide-39 (N11A)
B7: anti-CD28 Fab (Fab, V domains shown)
VH: QVQLVQSGAEVKKPGASVKVSCKASGYTFTSYYIHWVRQAPGQGLEWIGSIYPGNVNTNYNEKFKDRATLTVDTSISTAYMELSRLRSDDTAVYFCTRSHYGLDWNFDVWGQGTTVTVSS
VL: not shown

Legend:
[1] = molecular target: T7, anti-CD28 Fab (SEQ ID NOs: 202, 203); test: binding ELISA, peptide captured, anti-CD28 Fab titrated
T7 construct: biotinylated when captured in the phage ELISAs

[2] = molecular target: T7, anti-CD28 Fab (SEQ ID NOs: 202, 203); test: as above; remark: listed apart in the source
Ab-1 [3] = molecular target: T8, Ab-1; test: competition ELISA, peptide titrated vs 1 nM Ab-1 binding plate-bound CD28
T8 construct: also called anti-CD28 scFv harbored in Ab-1

Ab-1 [4] = molecular target: T8, Ab-1; test: BLI (Octet), peptide on sensor, Ab-1 titrated, 1:1 model
Ab-1 [5] = molecular target: T8, Ab-1; test: BLI (Octet), 200 nM peptide, 100 nM Ab-1;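 as to t1/2: association and dissociation phases tracked in real time, with kinetics fitted to a 1:1 interaction model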
Ab-1 [6] = molecular target: T8, Ab-1; test: binding ELISA, peptide captured, Ab-1 titrated
[7] = molecular target: T9, anti-CD28 scFv (SEQ ID NO: 35); test: BLI (Octet)
T9 construct: also called anti-CD28 scFv wt Vh-linker-Vl; human anti-CD28 scFv

anti-CD28 Fab [8] = molecular target: B7; test: competition ELISA, alanine scan of Peptide-44, Fab binding plate-bound CD28
[9] = molecular target: T10, anti-CD28 scFv wt Vh-linker-Vl (biotinylated (site not stated)); test: phage ELISA on captured scFv, CD28 as competitor
T10 construct: captured on neutravidin plates

anti-CD28 Fab [10] = molecular target: B7; test: competition ELISA, alanine scan of Peptide-39, Fab binding plate-bound CD28
Ab-1 [11] = molecular target: T8, Ab-1; test: BLI (Octet), 20 nM peptide, 100 nM Ab-1
Ab-1 [12] = molecular target: T8, Ab-1; test: BLI (Octet), peptide on sensor, Ab-1 titrated, 1:1 model; remark: listed apart in the source
Ab-1 [13] = molecular target: T8, Ab-1; test: binding ELISA, peptide captured, Ab-1 titrated; remark: listed apart in the source
Ab-1 [14] = molecular target: T8, Ab-1; test: competition ELISA, peptide titrated vs 1 nM Ab-1 binding plate-bound CD28; remark: listed apart in the source
Ab-1 [15] = molecular target: T8, Ab-1; test: BLI (Octet), 200 nM peptide, 100 nM Ab-1; remark: listed apart in the source;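 as to t1/2: association and dissociation phases tracked in real time, with kinetics fitted to a 1:1 interaction model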
Peptide-84 = molecular target: T1, Peptide-84; test: BLI, peptide on sensor, Fab in solution, 1:1 model
Peptide-39 = molecular target: B1; test: BLI, peptide on sensor, Fab in solution, 1:1 model
Peptide-73 = molecular target: T2, Peptide-73; test: BLI, peptide on sensor, Fab in solution, 1:1 model
Peptide-78 = molecular target: T3, Peptide-78; test: BLI, peptide on sensor, Fab in solution, 1:1 model
Peptide-79 = molecular target: T4, Peptide-79; test: BLI, peptide on sensor, Fab in solution, 1:1 model
Peptide-86 = molecular target: T5, Peptide-86; test: BLI, peptide on sensor, Fab in solution, 1:1 model
Peptide-72 = molecular target: T6, Peptide-72; test: BLI, peptide on sensor, Fab in solution, 1:1 model

Binder SCAAGASYAWPYCL (cysteine pairing not given here; also: biotinylated, site not given here) has an EC50 [1] of 0.054 µM and an EC50 [2] of 0.0189 µM.

For IDWCPRYLWDECYN (cysteine pairing not given here; also: biotinylated, site not given here) [Peptide-23], the IC50 (Ab-1 [3]) was 0.14 µM, the Kd (Ab-1 [4]) was 0.016 µM and the t1/2 (Ab-1 [4]) was 9.1 min. For the same binder, the “Octet signal (200 nM peptide)” value (Ab-1 [5]) was 1.52 and the EC50 (Ab-1 [6]) was 0.0021 µM.

With IDWCPLHLWHECYH (cysteine pairing not given here; also: biotinylated, site not given here) [Peptide-24] the IC50 (Ab-1 [3]) was 1.52 µM, the “Octet signal (200 nM peptide)” value (Ab-1 [5]) was 0.838 and the EC50 (Ab-1 [6]) was 0.0133 µM.

GYCHYWGDMVMWCG (cysteine pairing not given here; also: biotinylated, site not given here, biotinylated for capture in BLI) [Peptide-118]: binds [7].

Binder SCAAGASYAWPYCL (cysteine pairing not given here; also: biotinylated, site not given here, synthetic peptide) has an IC50 (anti-CD28 Fab [8]) of 7890 µM.

Work on SCAAGASYAWPYCA [Peptide-58] yielded an IC50 (anti-CD28 Fab [8]) of 76400 µM.

In the case of ACAAGASYAWPYCL [Peptide-51], the IC50 (anti-CD28 Fab [8]) is reported as 21000 µM.

SCAAGAAYAWPYCL [Peptide-53] gave an IC50 (anti-CD28 Fab [8]) of 7420 µM.

For SCAAGASYAWPACL [Peptide-57], the IC50 (anti-CD28 Fab [8]) was 13000 µM.

In the case of IDWCPTAGWTYCWF [Phage-1513], the “CD28 scFv signal in presence of CD28” value [9] is reported as 0.075.

YCAGHSPINIGKCL (cysteine pairing not given here; also: biotinylated, site not given here) [Peptide-36] showed an EC50 [1] of 0.337 µM.

With IYWCPIDRWNDCYN (cysteine pairing not given here; also: biotinylated, site not given here) [Peptide-26] the IC50 (Ab-1 [3]) was 0.41 µM, the “Octet signal (200 nM peptide)” value (Ab-1 [5]) was 0.705 and the EC50 (Ab-1 [6]) was 0.0076 µM.

Binder ACDTYFAGMINECF (cysteine pairing not given here; also: biotinylated, site not given here) [Peptide-31] has an EC50 [1] of 0.097 µM.

LDWCPRHLWALCFN (cysteine pairing not given here; also: biotinylated, site not given here) [Peptide-22] was tested, and the IC50 (Ab-1 [3]) was 0.47 µM, the “Octet signal (200 nM peptide)” value (Ab-1 [5]) was 0.697 and the EC50 (Ab-1 [6]) was 0.0082 µM.

Binder B1 has an IC50 (anti-CD28 Fab [10]) of 12600 µM.

In the case of B2, the IC50 (anti-CD28 Fab [10]) is reported as 12300 µM.

B3 gave an IC50 (anti-CD28 Fab [10]) of 102000 µM.

B4 showed an IC50 (anti-CD28 Fab [10]) of 98600 µM.

With B5 the IC50 (anti-CD28 Fab [10]) was 3160 µM.

Work on B6 yielded an IC50 (anti-CD28 Fab [10]) of 5490 µM.

MDWCPRDLWVHCFA (cysteine pairing not given here; also: biotinylated, site not given here) [Peptide-1] was tested, and the “Octet signal (20 nM peptide)” value (Ab-1 [11]) was 0.509, the IC50 (Ab-1 [3]) was 0.2 µM and the Kd (Ab-1 [12]) was 0.0151 µM. The t1/2 (Ab-1 [12]) was 15.5 min, the EC50 (Ab-1 [13]) was 0.004 µM and the EC50 [1] was 0.49 µM. For the same binder, the IC50 (Ab-1 [14]) was 0.06 µM, the “Octet signal (200 nM peptide)” value (Ab-1 [5]) was 1.8 and the Octet signal (Ab-1 [15]) was 2.03. For the same binder, the t1/2 (Ab-1 [15]) was 9.8 min and the EC50 (Ab-1 [6]) was 0.001 µM.

In the case of TDWCPRDLWVHCFA (cysteine pairing not given here; also: biotinylated, site not given here) [Peptide-16], the Kd (Ab-1 [12]) is reported as 0.0255 µM, the t1/2 (Ab-1 [12]) is reported as 4.7 min and the EC50 (Ab-1 [13]) is reported as 0.024 µM. The IC50 (Ab-1 [14]) was 0.59 µM, the Octet signal (Ab-1 [15]) was 1.34 and the t1/2 (Ab-1 [15]) was 4.2 min.

KDWCPRDLWVHCFA (cysteine pairing not given here; also: biotinylated, site not given here) [Peptide-12] gave a Kd (Ab-1 [12]) of 0.0261 µM, a t1/2 (Ab-1 [12]) of 4.5 min and an EC50 (Ab-1 [13]) of 0.0197 µM. It also gave an IC50 (Ab-1 [14]) of 0.19 µM, an Octet signal (Ab-1 [15]) of 1.13 and a t1/2 (Ab-1 [15]) of 4 min.

Binder EDWCPRDLWVHCFA (cysteine pairing not given here; also: biotinylated, site not given here) [Peptide-7] has a Kd (Ab-1 [12]) of 0.0232 µM, a t1/2 (Ab-1 [12]) of 3.1 min and an EC50 (Ab-1 [13]) of 0.0328 µM. It also gave an IC50 (Ab-1 [14]) of 0.3 µM, an Octet signal (Ab-1 [15]) of 1.02 and a t1/2 (Ab-1 [15]) of 3 min.

Work on QDWCPRDLWVHCFA (cysteine pairing not given here; also: biotinylated, site not given here) [Peptide-6] yielded a Kd (Ab-1 [12]) of 0.0246 µM, a t1/2 (Ab-1 [12]) of 4.2 min and an EC50 (Ab-1 [13]) of 0.0257 µM. The IC50 (Ab-1 [14]) was 0.33 µM, the Octet signal (Ab-1 [15]) was 1.12 and the t1/2 (Ab-1 [15]) was 3.6 min.

Work on YCAGHAWQYINKCL (cysteine pairing not given here; also: biotinylated, site not given here) yielded an EC50 [1] of 0.049 µM.

For B7, the Kd (Peptide-84) was 0.11 µM, the koff (Peptide-84) was 0.0138 s⁻¹ and the kon (Peptide-84) was 125000 M⁻¹ s⁻¹. For the same binder, the “t½” value (Peptide-84) was 0.8 min, the Kd (Peptide-39) was 2.02 µM and the koff (Peptide-39) was 0.0202 s⁻¹. The kon (Peptide-39) was 10000 M⁻¹ s⁻¹, the “t½” value (Peptide-39) was 0.6 min and the Kd (Peptide-73) was 0.831 µM. For the same binder, the koff (Peptide-73) was 0.028 s⁻¹, the kon (Peptide-73) was 33700 M⁻¹ s⁻¹ and the “t½” value (Peptide-73) was 0.4 min. The Kd (Peptide-78) was 0.141 µM, the koff (Peptide-78) was 0.0191 s⁻¹ and the kon (Peptide-78) was 135000 M⁻¹ s⁻¹. The “t½” value (Peptide-78) was 0.6 min, the Kd (Peptide-79) was 0.0447 µM and the koff (Peptide-79) was 0.0118 s⁻¹. The kon (Peptide-79) was 264000 M⁻¹ s⁻¹, the “t½” value (Peptide-79) was 1 min and the Kd (Peptide-86) was 0.0402 µM. For the same binder, the koff (Peptide-86) was 0.0115 s⁻¹, the kon (Peptide-86) was 286000 M⁻¹ s⁻¹ and the “t½” value (Peptide-86) was 1 min. The Kd (Peptide-72) was 0.926 µM, the koff (Peptide-72) was 0.0239 s⁻¹ and the kon (Peptide-72) was 25800 M⁻¹ s⁻¹. The “t½” value (Peptide-72) was 0.5 min.

VPWCQIISGLECLT (cysteine pairing not given here; also: biotinylated, site not given here) [Peptide-25] was tested, and the IC50 (Ab-1 [3]) was over 100 µM, the “Octet signal (200 nM peptide)” value (Ab-1 [5]) was 0.166 and the EC50 (Ab-1 [6]) was 0.0549 µM.
